B1: wild-type catalase-peroxidase KatG from Mycobacterium tuberculosis (enzyme)
chain: MPEQHPPITETTTGAASNGCPVVGHMKYPVEGGGNQDWWPNRLNLKVLHQNPAVADPMGAAFDYAAEVATIDVDALTRDIEEVMTTSQPWWPADYGHYGPLFIRMAWHAAGTYRIHDGRGGAGGGMQRFAPLNSWPDNASLDKARRLLWPVKKKYGKKLSWADLIVFAGNCALESMGFKTFGFGFGRVDQWEPDEVYWGKEATWLGDERYSGKRDLENPLAAVQMGLIYVNPEGPNGNPDPMAAAVDIRETFRRMAMNDVETAALIVGGHTFGKTHGAGPADLVGPEPEAAPLEQMGLGWKSSYGTGTGKDAITSGIEVVWTNTPTKWDNSFLEILYGYEWELTKSPAGAWQYTAKDGAGAGTIPDPFGGPGRSPTMLATDLSLRVDPIYERITRRWLEHPEELADEFAKAWYKLIHRDMGPVARYLGPLVPKQTLLWQDPVPAVSHDLVGEAEIASLKSQIRASGLTVSQLVSTAWAAASSFRGSDKRGGANGGRIRLQPQVGWEVNDPDGDLRKVIRTLEEIQESFNSAAPGNIKVSFADLVVLGGCAAIEKAAKAAGHNITVPFTPGRTDASQEQTDVESFAVLEPKADGFRNYLGKGNPLPAEYMLLDKANLLTLSAPEMTVLVGGLRVLGANYKRLPLGVFTEASESLTNDFFVNLLDMGITWEPSPADDGTYQGKDGSGKVKWTGSRVDLVFGSNSELRALVEVYGADDAQPKFVQDFVAAWDKVMNLDRFDVR
modifications: covalent linkage between Trp107, Tyr229 and Met255 (MYW catalytic triad); b-type heme bound in both protomers
notes: also called WT KatG; KatG^INH (with INH added); not shown: His-tag, N-terminal, cleaved
B2: KatG W107R variant from Mycobacterium tuberculosis (enzyme)
chain: MPEQHPPITETTTGAASNGCPVVGHMKYPVEGGGNQDWWPNRLNLKVLHQNPAVADPMGAAFDYAAEVATIDVDALTRDIEEVMTTSQPWWPADYGHYGPLFIRMARHAAGTYRIHDGRGGAGGGMQRFAPLNSWPDNASLDKARRLLWPVKKKYGKKLSWADLIVFAGNCALESMGFKTFGFGFGRVDQWEPDEVYWGKEATWLGDERYSGKRDLENPLAAVQMGLIYVNPEGPNGNPDPMAAAVDIRETFRRMAMNDVETAALIVGGHTFGKTHGAGPADLVGPEPEAAPLEQMGLGWKSSYGTGTGKDAITSGIEVVWTNTPTKWDNSFLEILYGYEWELTKSPAGAWQYTAKDGAGAGTIPDPFGGPGRSPTMLATDLSLRVDPIYERITRRWLEHPEELADEFAKAWYKLIHRDMGPVARYLGPLVPKQTLLWQDPVPAVSHDLVGEAEIASLKSQIRASGLTVSQLVSTAWAAASSFRGSDKRGGANGGRIRLQPQVGWEVNDPDGDLRKVIRTLEEIQESFNSAAPGNIKVSFADLVVLGGCAAIEKAAKAAGHNITVPFTPGRTDASQEQTDVESFAVLEPKADGFRNYLGKGNPLPAEYMLLDKANLLTLSAPEMTVLVGGLRVLGANYKRLPLGVFTEASESLTNDFFVNLLDMGITWEPSPADDGTYQGKDGSGKVKWTGSRVDLVFGSNSELRALVEVYGADDAQPKFVQDFVAAWDKVMNLDRFDVR
notes: also called W107R KatG; not shown: His-tag, N-terminal, cleaved
B3: KatG T275P variant from Mycobacterium tuberculosis (enzyme)
chain: MPEQHPPITETTTGAASNGCPVVGHMKYPVEGGGNQDWWPNRLNLKVLHQNPAVADPMGAAFDYAAEVATIDVDALTRDIEEVMTTSQPWWPADYGHYGPLFIRMAWHAAGTYRIHDGRGGAGGGMQRFAPLNSWPDNASLDKARRLLWPVKKKYGKKLSWADLIVFAGNCALESMGFKTFGFGFGRVDQWEPDEVYWGKEATWLGDERYSGKRDLENPLAAVQMGLIYVNPEGPNGNPDPMAAAVDIRETFRRMAMNDVETAALIVGGHTFGKPHGAGPADLVGPEPEAAPLEQMGLGWKSSYGTGTGKDAITSGIEVVWTNTPTKWDNSFLEILYGYEWELTKSPAGAWQYTAKDGAGAGTIPDPFGGPGRSPTMLATDLSLRVDPIYERITRRWLEHPEELADEFAKAWYKLIHRDMGPVARYLGPLVPKQTLLWQDPVPAVSHDLVGEAEIASLKSQIRASGLTVSQLVSTAWAAASSFRGSDKRGGANGGRIRLQPQVGWEVNDPDGDLRKVIRTLEEIQESFNSAAPGNIKVSFADLVVLGGCAAIEKAAKAAGHNITVPFTPGRTDASQEQTDVESFAVLEPKADGFRNYLGKGNPLPAEYMLLDKANLLTLSAPEMTVLVGGLRVLGANYKRLPLGVFTEASESLTNDFFVNLLDMGITWEPSPADDGTYQGKDGSGKVKWTGSRVDLVFGSNSELRALVEVYGADDAQPKFVQDFVAAWDKVMNLDRFDVR
notes: Homodimer (C2 symmetry imposed); no ordered heme modelled in either protomer; also called T275P KatG; not shown: His-tag, N-terminal, cleaved

The series deals with the molecule itself. Put plainly: cryo-EM structure.
Turning to B1, the binding result was “binds”.

For B2, the binding result was “binds”.

On to B3, for which the binding result is given as “binds”.

Source of the values: publication PMC8355310, “Using cryo-EM to understand antimycobacterial resistance in the catalase-peroxidase (KatG) from Mycobacterium tuberculosis” (Structure(London, England:1993), 2021).
